# Test results taken from patent US20240150491A1 (Genentech, published 2024).
# Residue numbers refer to the chain shown, from its start.
# T1: human KLK5 (human, UniProt Q9Y337 67-293)
# T1 sequence: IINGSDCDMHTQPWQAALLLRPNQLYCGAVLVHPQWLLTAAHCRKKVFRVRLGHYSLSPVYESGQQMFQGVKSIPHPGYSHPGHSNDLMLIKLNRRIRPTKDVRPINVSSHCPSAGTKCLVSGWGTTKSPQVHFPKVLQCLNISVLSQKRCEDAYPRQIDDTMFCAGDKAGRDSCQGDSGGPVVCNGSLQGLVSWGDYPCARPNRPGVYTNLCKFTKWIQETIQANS
# T2: cynomolgus monkey KLK5 (cynomolgus monkey, UniProt Q9Y337 67-293 (human entry))
# T2 chain: T1 sequence with M9E, R21G, A29G, V71I, R98H, P99S, K128R, K169E, R202K
# B1: 14H11 (antibody, V domains shown)
# VH: QSLEESGGDLVKPGASLTLTCTASGFSFSSSYYMCWVRQAPGKGLEWIASIYAGSSGAPYYAGWAKGRFTISKTSSTAVTLQMSSLTAADTATYFCAREGFAETGGYGYAAYFNLWGPGTLVTVSS
# VL: AIEMTQSPPSLSASVGETVRIRCLASEDIASSVSWYQQKPGKPPTLLIYGASNLESGVPPRFTGSGSGTDYTLTIGGVQAEDAATYYCLGGYSYSSTGTAFGAGTKVEIK
# B2: hu.14H11c.L2H11-hIgG1 (antibody, V domains shown)
# VH: EQQLVESGGGLIQPGGSLRLSCAASGFSFSSSYYMSWVRQAPGKGLEWVSSIYAGSSGAPYYAGWAKGRFTISRDNSKNTLYLQMNSLRAEDTAVYYCAREGFAETGGYGYAAYFNLWGPGTLVTVSS
# VL: DIQMTQSPSSLSASVGDRVTITCLASEDIASSVSWYQQKPGKAPKLLIYGASNLESGVPSRFSGSGSGTDYTLTISSLQPEDFATYYCLGGYSYSSTGTAFGGGTKVEIK
# B3: hu.10C5VY.hu14H11c.L2H11 WT (bispecific antibody, human IgG1, kappa, N297G)
# heavy 1: not shown
# light 1: DIQMTQSPSSLSASVGDRVTITCLASEDIASSVSWYQKKPGKAPKLLIYGASNLESGVPSRFSGSGSGTDYTLTISSLQPEDFATYYCLGGYSYSSTGTAFGGGTKVEIKRTVAAPSVFIFPPSDEQLKSGTASVECLLNNFYPREAKVQWKVDNALQSGNSQESVTEQDSKDSTYSLSSTLTLSKADYEKHKVYACEVTHQGLSSPVTKSFNRGEC
# heavy 2: EVQLVESGGGLVQPGGSLRLSCAASGFSLSSYGVTWVRKAPGKGLEWIGYITSVYGVSYYASWAKSRSTISRDTSKNTVYLQMGSLRAEDMAVYYCARENPDYGYAYDAWGQGTTVTVSSASTKGPSVFPLAPSSKSTSGGTAALGCLVKDYFPEPVTVSWNSGALTSGVHTFPAVLQSSGLYSLESVVTVPSSSLGTQTYICNVNHKPSNTKVDKKVEPKSCDKTHTCPPCPAPELLGGPSVFLFPPKPKDTLMISRTPEVTCVVVDVSHEDPEVKFNWYVDGVEVHNAKTKPREEQYGSTYRVVSVLTVLHQDWLNGKEYKCKVSNKALPAPIEKTISKAKGQPREPQVYTLPPSREEMTKNQVSLSCAVKGFYPSDIAVEWESNGQPENNYKTTPPVLDSDGSFFLVSKLTVDKSRWQQGNVFSCSVMHEALHNHYTQKSLSLSPGK
# light 2: AIRMTQSPSSFSASTGDRVTITCQASESISNELSWYQEKPGKAPKLLIYYASTLASGVPSRFSGSGSGTDFTLTISSLQPEDFATYYCAQGYGSSGVENVFGGGTKVEIKRTVAAPSVFIFPPSDEQLKSGTASVKCLLNNFYPREAKVQWKVDNALQSGNSQESVTEQDSKDSTYSLSSTLTLSKADYEKHKVYACEVTHQGLSSPVTKSFNRGEC
# B4: hu.10C5VY.hu14H11c.L2H11 LS (bispecific antibody, human IgG1, kappa, N297G)
# heavy 1: EQQLVESGGGLIQPGGSLRLSCAASGFSFSSSYYMSWVREAPGKGLEWVSSIYAGSSGAPYYAGWAKGRFTISRDNSKNTLYLQMNSLRAEDTAVYYCAREGFAETGGYGYAAYFNLWGPGTLVTVSSASTKGPSVFPLAPSSKSTSGGTAALGCLVKDYFPEPVTVSWNSGALTSGVHTFPAVLQSSGLYSLKSVVTVPSSSLGTQTYICNVNHKPSNTKVDKKVEPKSCDKTHTCPPCPAPELLGGPSVFLFPPKPKDTLMISRTPEVTCVVVDVSHEDPEVKFNWYVDGVEVHNAKTKPREEQYGSTYRVVSVLTVLHQDWLNGKEYKCKVSNKALPAPIEKTISKAKGQPREPQVYTLPPSREEMTKNQVSLWCLVKGFYPSDIAVEWESNGQPENNYKTTPPVLDSDGSFFLYSKLTVDKSRWQQGNVFSCSVLHEALHSHYTQKSLSLSPGK
# light 1: B3 light 1
# heavy 2: B3 heavy 2 with M431L, N437S
# light 2: B3 light 2
# B5: hu10C5VY (antibody, V domains shown)
# VH: EVQLVESGGGLVQPGGSLRLSCAASGFSLSSYGVTWVRQAPGKGLEWIGYITSVYGVSYYASWAKSRSTISRDTSKNTVYLQMGSLRAEDMAVYYCARENPDYGYAYDAWGQGTTVTVSS
# VL: AIRMTQSPSSFSASTGDRVTITCQASESISNELSWYQQKPGKAPKLLIYYASTLASGVPSRFSGSGSGTDFTLTISSLQPEDFATYYCAQGYGSSGVENVFGGGTKVEIK
# Target: T3, cyno KLK7 (SEQ ID NO: 6 plus a C-terminal FLAG tag) (cynomolgus monkey, UniProt P49862 30-253 (human entry))
# Assay: cell-based or functional assay
# T3 sequence (P49862 other isoform, or with tags, fused parts or gaps): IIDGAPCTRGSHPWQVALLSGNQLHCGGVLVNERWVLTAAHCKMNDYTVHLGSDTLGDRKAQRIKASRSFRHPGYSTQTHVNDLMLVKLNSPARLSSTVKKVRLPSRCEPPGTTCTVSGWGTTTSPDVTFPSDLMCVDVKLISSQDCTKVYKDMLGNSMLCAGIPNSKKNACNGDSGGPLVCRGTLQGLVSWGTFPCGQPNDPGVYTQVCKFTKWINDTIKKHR
row,"IC50, inhibition of KLK7 cleavage of MCA peptide substrate (bivalency not accounted for) [nM]",Binder
1,0.15,B1

# Target: T4, human KLK7 (SEQ ID NO: 4 plus a C-terminal FLAG tag) (human, UniProt P49862 30-253)
# Assay: cell-based or functional assay
# T4 sequence (P49862 30-253): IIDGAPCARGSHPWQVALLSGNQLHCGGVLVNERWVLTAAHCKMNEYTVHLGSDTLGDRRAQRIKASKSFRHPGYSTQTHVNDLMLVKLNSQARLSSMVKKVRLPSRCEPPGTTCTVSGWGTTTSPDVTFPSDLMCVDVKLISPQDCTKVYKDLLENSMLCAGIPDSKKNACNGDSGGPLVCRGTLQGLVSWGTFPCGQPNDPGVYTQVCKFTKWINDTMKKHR
row,"IC50, inhibition of KLK7 cleavage of MCA peptide substrate (bivalency not accounted for) [nM]",Binder
1,0.11,B1

# Target: T1, human KLK5
# Assay: cell-based or functional assay
row,"IC50, inhibition of KLK5 cleavage of Boc-Val-Pro-Arg-AMC (bivalency corrected) [nM]",Binder
1,> 10,B2
2,0.67,B3
3,0.54,B4
4,0.46,B5

# Target: T4, human KLK7 (SEQ ID NO: 4 plus a …)
# Assay: cell-based or functional assay
# Remark: another data set of the same source
row,"IC50, inhibition of KLK7 cleavage of Mca-RPKPVE-Nval-WRK(Dnp) (bivalency corrected) [nM]",Binder
1,0.29,B2
2,0.37,B3
3,0.34,B4
4,> 10,B5

# Target: T3, cyno KLK7 (SEQ ID NO: 6 plus a …)
# Assay: cell-based or functional assay
# Remark: another data set of the same source
row,"IC50, inhibition of KLK7 cleavage of Mca-RPKPVE-Nval-WRK(Dnp) (bivalency corrected) [nM]",Binder
1,0.29,B2
2,0.37,B3
3,0.36,B4
4,> 10,B5

# Target: T2, cynomolgus monkey KLK5
# Assay: cell-based or functional assay
row,"IC50, inhibition of KLK5 cleavage of Boc-Val-Pro-Arg-AMC (bivalency corrected) [nM]",Binder
1,> 10,B2
2,0.73,B3
3,0.58,B4
4,0.56,B5
